{"source": "the supplement of paper PMC10567573", "parents": {"B1": {"name": "PLAGL1 (parent)", "chain": "EKPPSGTKEKKHQCDHCERCFYTR"}}}
{"variants_of": "B1", "experiment": "protein stability index of a GFP-peptide fusion (GPS, HEK-293T) (PSI 1-6); higher = more stable", "conditions": "c terminus: a fixed tail appended"}
{"variant": "P4V", "protein stability index": 3.19}
{"variant": "P4N", "protein stability index": 3.58}
{"variant": "P4K", "protein stability index": 3.53}
{"variant": "P4E", "protein stability index": 3.88}
{"variant": "P4C", "protein stability index": 3.74}
{"variant": "P4M", "protein stability index": 3.45}
{"variant": "P4F", "protein stability index": 3.44}
{"variant": "E1A", "protein stability index": 3.43}
{"variant": "E1H", "protein stability index": 3.54}
{"variant": "E1F", "protein stability index": 2.75}
{"variant": "E1C", "protein stability index": 3.21}
{"variant": "E1V", "protein stability index": 3.57}
{"variant": "E1L", "protein stability index": 3.62}
{"variant": "E1R", "protein stability index": 3.02}
{"variant": "E1Q", "protein stability index": 3.87}
{"variant": "E1Y", "protein stability index": 3.04}
{"variant": "F21H", "protein stability index": 3.51}
{"variant": "F21M", "protein stability index": 4.75}
{"variant": "F21K", "protein stability index": 4.39}
{"variant": "F21S", "protein stability index": 4.22}
{"variant": "F21L", "protein stability index": 4.08}
{"variant": "F21D", "protein stability index": 4.34}
{"variant": "F21Y", "protein stability index": 4.37}
{"variant": "F21C", "protein stability index": 3.88}
{"variant": "F21I", "protein stability index": 4.52}
{"variant": "F21G", "protein stability index": 4.32}
{"variant": "F21E", "protein stability index": 4.11}
{"variant": "R19D", "protein stability index": 4.91}
{"variant": "R19W", "protein stability index": 3.29}
{"variant": "R19Y", "protein stability index": 3.79}
{"variant": "R19S", "protein stability index": 3.9}
{"variant": "R19M", "protein stability index": 3.83}
{"variant": "R19K", "protein stability index": 4}
{"variant": "R19V", "protein stability index": 3.39}
{"variant": "R19Q", "protein stability index": 4.34}
{"variant": "H16S", "protein stability index": 4.13}
{"variant": "H16Q", "protein stability index": 3.82}
{"variant": "H16R", "protein stability index": 3.49}
{"variant": "H16Y", "protein stability index": 2.59}
{"variant": "H16T", "protein stability index": 3.66}
{"variant": "H16L", "protein stability index": 3.51}
{"variant": "H16P", "protein stability index": 3.94}
{"variant": "H16A", "protein stability index": 4.15}
{"variant": "H16M", "protein stability index": 3.66}
{"variant": "H16D", "protein stability index": 4.02}
{"variant": "K2C", "protein stability index": 3.62}
{"variant": "K2L", "protein stability index": 3.32}
{"variant": "K2A", "protein stability index": 3.94}
{"variant": "K2P", "protein stability index": 4.08}
{"variant": "K2N", "protein stability index": 4.05}
{"variant": "K2F", "protein stability index": 3.44}
{"variant": "T23S", "protein stability index": 3.79}
{"variant": "T23H", "protein stability index": 3.86}
{"variant": "T23Q", "protein stability index": 4.01}
{"variant": "T23E", "protein stability index": 5.09}
{"variant": "T23R", "protein stability index": 3.4}
{"variant": "T23M", "protein stability index": 4.34}
{"variant": "T23D", "protein stability index": 4.63}
{"variant": "T23N", "protein stability index": 2.86}
{"variant": "T23K", "protein stability index": 3.99}
{"variant": "H12K", "protein stability index": 3.55}
{"variant": "H12E", "protein stability index": 3.04}
{"variant": "T7F", "protein stability index": 3.91}
{"variant": "T7I", "protein stability index": 4.11}
{"variant": "T7P", "protein stability index": 3.74}
{"variant": "T7Y", "protein stability index": 3.27}
{"variant": "T7K", "protein stability index": 3.28}
{"variant": "C20G", "protein stability index": 2.5}
{"variant": "C20L", "protein stability index": 2.95}
{"variant": "C20W", "protein stability index": 2.35}
{"variant": "S5R", "protein stability index": 3.29}
{"variant": "S5W", "protein stability index": 3.1}
{"variant": "S5Y", "protein stability index": 3.57}
{"variant": "S5P", "protein stability index": 3.54}
{"variant": "S5T", "protein stability index": 3.34}
{"variant": "S5V", "protein stability index": 3.83}
{"variant": "S5Q", "protein stability index": 3.42}
{"variant": "K11H", "protein stability index": 4.06}
{"variant": "K11P", "protein stability index": 3.59}
{"variant": "K11N", "protein stability index": 3.63}
{"variant": "K11D", "protein stability index": 4.99}
{"variant": "K11T", "protein stability index": 3.84}
{"variant": "K11F", "protein stability index": 3.67}
{"variant": "K10T", "protein stability index": 3.78}
{"variant": "K10N", "protein stability index": 3.76}
{"variant": "K10P", "protein stability index": 4.16}
{"variant": "K10I", "protein stability index": 3.77}
{"variant": "K10G", "protein stability index": 3.91}
{"variant": "K10F", "protein stability index": 3.42}
{"variant": "K10H", "protein stability index": 4.05}
{"variant": "K10V", "protein stability index": 3.9}
{"variant": "K10A", "protein stability index": 3.87}
{"variant": "K8P", "protein stability index": 4.25}
{"variant": "K8N", "protein stability index": 3.77}
{"variant": "K8I", "protein stability index": 3.1}
{"variant": "K8S", "protein stability index": 3.66}
{"variant": "K8Q", "protein stability index": 4.78}
{"variant": "K8G", "protein stability index": 3.29}
{"variant": "E18F", "protein stability index": 2.61}
{"variant": "E18R", "protein stability index": 2.79}
{"variant": "E18Q", "protein stability index": 2.45}
{"variant": "E18K", "protein stability index": 2.58}
{"variant": "E18T", "protein stability index": 3.62}
{"variant": "E18L", "protein stability index": 2.87}
{"variant": "R24N", "protein stability index": 4.55}
{"variant": "R24W", "protein stability index": 4.29}
{"variant": "R24F", "protein stability index": 4.35}
{"variant": "R24L", "protein stability index": 4.29}
{"variant": "R24G", "protein stability index": 4.24}
{"variant": "D15V", "protein stability index": 2.68}
{"variant": "D15H", "protein stability index": 2.9}
{"variant": "D15R", "protein stability index": 2.2}
{"variant": "D15L", "protein stability index": 2.91}
{"variant": "D15W", "protein stability index": 3.15}
{"variant": "Q13K", "protein stability index": 3.67}
{"variant": "Q13H", "protein stability index": 3.28}
{"variant": "Q13L", "protein stability index": 3.26}
{"variant": "Q13A", "protein stability index": 3.4}
{"variant": "Q13C", "protein stability index": 3.19}
{"variant": "Q13D", "protein stability index": 4.33}
{"variant": "Q13Y", "protein stability index": 2.73}
{"variant": "Q13V", "protein stability index": 3.17}
{"variant": "Q13R", "protein stability index": 2.77}
{"variant": "G6I", "protein stability index": 3.17}
{"variant": "G6K", "protein stability index": 3.52}
{"variant": "G6V", "protein stability index": 4}
{"variant": "P3R", "protein stability index": 3.75}
{"variant": "P3S", "protein stability index": 3.78}
{"variant": "P3A", "protein stability index": 4.29}
{"variant": "P3F", "protein stability index": 3.54}
{"variant": "P3C", "protein stability index": 3.98}
{"variant": "P3M", "protein stability index": 3.41}
{"variant": "P3Q", "protein stability index": 3.8}
{"variant": "P3W", "protein stability index": 3.13}
{"variant": "P3K", "protein stability index": 3.6}
{"variant": "P3T", "protein stability index": 3.68}
{"variant": "E9G", "protein stability index": 3.75}
{"variant": "E9Q", "protein stability index": 3.77}
{"variant": "E9S", "protein stability index": 3.32}
{"variant": "E9C", "protein stability index": 4.63}
{"variant": "C14G", "protein stability index": 3.96}
{"variant": "C14F", "protein stability index": 3.81}
{"variant": "C14V", "protein stability index": 4.55}
{"variant": "C14M", "protein stability index": 4.11}
{"variant": "C14K", "protein stability index": 4.08}
{"variant": "C14H", "protein stability index": 3.57}
{"variant": "C14Q", "protein stability index": 4.06}
{"variant": "C14L", "protein stability index": 4.19}
{"variant": "C14N", "protein stability index": 3.71}
{"variant": "C14I", "protein stability index": 3.73}
{"variant": "C17A", "protein stability index": 3.71}
{"variant": "C17K", "protein stability index": 4.07}
{"variant": "C17N", "protein stability index": 3.76}
{"variant": "C17Q", "protein stability index": 3.9}
{"variant": "C17G", "protein stability index": 3.43}
{"variant": "C17H", "protein stability index": 3.67}
{"variant": "C17E", "protein stability index": 3.69}
{"variant": "C17I", "protein stability index": 3.49}
{"variant": "C17V", "protein stability index": 4.05}
{"variant": "C17M", "protein stability index": 3.63}
{"variant": "Y22A", "protein stability index": 4.25}
{"variant": "Y22S", "protein stability index": 4.17}
{"variant": "Y22C", "protein stability index": 4.84}
{"variant": "Y22H", "protein stability index": 4.13}
{"variant": "Y22T", "protein stability index": 3.89}
{"variant": "Y22Q", "protein stability index": 4.21}
{"variant": "Y22M", "protein stability index": 4.37}
